Among the data in US11427637B2, “Methods of treating PD-L1 expressing cancer” (Mayo Foundation for Medical Education and Research, priority 2016, dated 2022) are Kd and median survival values, retold here.

In one assay the target is T1, ABX (Homo sapiens, UniProt P02768).
T1 construct: purchased Celgene Corp
The assay is described as follows: Biolayer interferometry (BLItz) binding of atezolizumab to ABX. To be noted: biotinylated atezolizumab on streptavidin probe; ABX 100, 500, 1000 μg/mL in 1×PBS; read-out: Kd (binding affinity between atezolizumab and ABX). The method, then: To determine whether atezolizumab and ABX are capable of interacting to form nanoparticle complexes, Biolayer interferometry (BLItz) (Forte Bioscience) was performed using streptavidin probes. 100 ug/ml of biotinylated atezolizumab in 1×PBS was bound to the streptavidin probe. After washing unbound atezolizumab from the probe, the antibody-bound probe was exposed to ABX at concentrations of 100, 500, 1000 μg/mL in 1×PBS. An antibody probe exposed to PBS was used as background and background was subtracted. BLItz software was used to calculate dissociation constants (FIG. 1).

Assay [1] has as its system PD-L1 positive C8161 melanoma tumor cells. The assay can be described thus: In vivo efficacy, C8161 melanoma tumors in athymic nude mice. To be noted: one IV tail vein injection; atezolizumab 18 mg/kg, ABX 45 mg/kg, AA130 = 18 mg/kg atezolizumab and 45 mg/kg ABX. The method, then: Athymic nude mice (Harlan Sprague Dawley) were injected with 2×10^6 PD-L1 positive C8161 melanoma tumor cells. The tumors were allowed to grow until about 600 mm^3 and were treated by 100 μl IV tail vein injection with saline, atezolizumab alone (18 mg/kg), ABX alone (45 mg/kg) and AA130 (18 mg/kg atezolizumab and 45 mg/kg ABX) one time (FIGS. 5A-5D). Tumor growth was monitored 3 times/week. Tumor size was calculated with the equation: (length×width^2)/2.
Kaplan Meier curves were generated using Graph Pad software. The median survival for each group was 14, 13, 16, and 21.5 days for saline, atezolizumab, ABX and AA130, respectively. Survival differences between AA130 and all other groups were significant with p-values of 0.0008 for saline, 0.0015 for atezolizumab, and 0.0113 for Abraxane.

As usually defined, the Kd is the concentration at which binding is half-saturated. Turning to “atezolizumab: fully humanized, Fc-modified monoclonal antibody of IgG1 isotype against PD-L1”, the Kd in the assay with ABX amounted to 1.46 nM. The median survival in assay [1] worked out at 13 days.
